Starred links: 1 amine or outer side, 2 acyl side, 3 side chain; linkers in the order of their positions; H or OH if unused. Non-standard residues stand in square brackets, D forms with d. No end group written: not given here. (R)β21Nal = (R)-β2-1-naphthylalanine, O=C([C@@H](CN[*:1])Cc1cccc2ccccc12)[*:2]; (R)β31Nal = (R)-β3-1-naphthylalanine, O=C(C[C@@H](Cc1cccc2ccccc12)N[*:1])[*:2]; Dmt = Cc1cc(O)cc(C)c1C[C@H](N)C(=O)O
B1: EM-2 analog 10 (Tyr-Pro-(R)-β2-1-Nal-Phe-NH2) (peptide)
chain: YP[(R)β21Nal]F-NH2
modifications: N-terminus assumed
SMILES: NC(=O)[C@H](Cc1ccccc1)NC(=O)[C@@H](CNC(=O)[C@@H]1CCCN1C(=O)[C@@H](N)Cc1ccc(O)cc1)Cc1cccc2ccccc12
B2: EM-2 analog 11 (Dmt-Pro-(R)-β2-1-Nal-Phe-NH2) (peptide)
chain: [Dmt]P[(R)β21Nal]F-NH2
modifications: N-terminus assumed
SMILES: Cc1cc(O)cc(C)c1C[C@H](N)C(=O)N1CCC[C@H]1C(=O)NC[C@@H](Cc1cccc2ccccc12)C(=O)N[C@@H](Cc1ccccc1)C(N)=O
B3: EM-2 analog 12 (Tyr-Pro-(R)-β3-1-Nal-Phe-NH2) (peptide)
chain: YP[(R)β31Nal]F-NH2
modifications: N-terminus assumed
SMILES: NC(=O)[C@H](Cc1ccccc1)NC(=O)C[C@@H](Cc1cccc2ccccc12)NC(=O)[C@@H]1CCCN1C(=O)[C@@H](N)Cc1ccc(O)cc1
B4: EM-2 analog 13 (Dmt-Pro-(R)-β3-1-Nal-Phe-NH2) (peptide)
chain: [Dmt]P[(R)β31Nal]F-NH2
modifications: N-terminus assumed
SMILES: Cc1cc(O)cc(C)c1C[C@H](N)C(=O)N1CCC[C@H]1C(=O)N[C@@H](CC(=O)N[C@@H](Cc1ccccc1)C(N)=O)Cc1cccc2ccccc12

Experiments:
human mu opioid receptor [1] = molecular target: T1, human mu opioid receptor (human, UniProt P35372 1-400); assay: cell-based or functional assay
[2] = molecular target: T2, human kappa opioid receptor (human, UniProt P41145 1-380); assay: radioligand binding; displacement of [3H]U-69593 from commercial membranes of CHO cells transfected with the human recombinant kappa opioid receptor; Ki, mean ± SEM, n ≥ 3; details: one partner purified
T2 construct: kappa opioid receptor, human recombinant, in membranes of transfected CHO cells; also called kappa receptor; source: commercial membranes of CHO cells transfected with human recombinant opioid receptors

[3] = molecular target: T3, human delta opioid receptor (human, UniProt P41143 1-372); assay: radioligand binding; displacement of [3H]deltorphin-2 from commercial membranes of CHO cells transfected with the human recombinant delta opioid receptor; Ki, mean ± SEM, n ≥ 3; details: one partner purified
T3 construct: delta opioid receptor, human recombinant, in membranes of transfected CHO cells; also called delta receptor; source: commercial membranes of CHO cells transfected with human recombinant opioid receptors

human mu opioid receptor [4] = molecular target: T1, human mu opioid receptor; assay: radioligand binding; displacement of [3H]DAMGO from commercial membranes of CHO cells transfected with the human recombinant mu opioid receptor; Ki, mean ± SEM, n ≥ 3; details: one partner purified

T3 sequence (P41143 whole entry, stated change not applied): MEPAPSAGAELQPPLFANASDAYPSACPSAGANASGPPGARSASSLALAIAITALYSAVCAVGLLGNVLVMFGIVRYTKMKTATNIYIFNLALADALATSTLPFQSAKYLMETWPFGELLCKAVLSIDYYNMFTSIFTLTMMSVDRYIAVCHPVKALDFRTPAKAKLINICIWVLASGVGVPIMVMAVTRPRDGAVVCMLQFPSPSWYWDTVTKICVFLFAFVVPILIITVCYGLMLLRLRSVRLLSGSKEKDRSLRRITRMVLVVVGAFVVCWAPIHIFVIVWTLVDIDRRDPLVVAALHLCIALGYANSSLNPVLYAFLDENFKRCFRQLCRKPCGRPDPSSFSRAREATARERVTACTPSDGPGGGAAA
T1 sequence (P35372 whole entry): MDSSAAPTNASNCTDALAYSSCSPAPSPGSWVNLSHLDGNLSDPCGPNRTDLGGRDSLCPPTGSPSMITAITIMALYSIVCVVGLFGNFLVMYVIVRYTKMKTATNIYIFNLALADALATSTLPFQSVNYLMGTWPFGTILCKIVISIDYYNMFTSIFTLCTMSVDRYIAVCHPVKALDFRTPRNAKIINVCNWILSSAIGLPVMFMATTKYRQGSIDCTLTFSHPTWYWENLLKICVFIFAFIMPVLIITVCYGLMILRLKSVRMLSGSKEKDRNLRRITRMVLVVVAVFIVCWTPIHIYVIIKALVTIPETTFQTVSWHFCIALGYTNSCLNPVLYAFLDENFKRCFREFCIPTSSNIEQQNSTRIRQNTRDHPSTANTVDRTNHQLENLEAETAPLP
T2 sequence (P41145 whole entry): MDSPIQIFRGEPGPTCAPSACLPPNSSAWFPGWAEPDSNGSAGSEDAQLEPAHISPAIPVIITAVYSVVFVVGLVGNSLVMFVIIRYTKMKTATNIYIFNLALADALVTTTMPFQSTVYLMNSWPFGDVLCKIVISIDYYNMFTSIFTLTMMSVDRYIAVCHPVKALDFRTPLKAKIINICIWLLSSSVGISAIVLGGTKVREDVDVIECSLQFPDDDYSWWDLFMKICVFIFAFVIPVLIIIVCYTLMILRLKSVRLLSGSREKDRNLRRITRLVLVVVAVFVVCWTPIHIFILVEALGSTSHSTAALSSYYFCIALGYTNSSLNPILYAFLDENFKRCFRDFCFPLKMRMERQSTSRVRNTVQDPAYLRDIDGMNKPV

Binder	calcium mobilization, CHO cells with human mu receptor and Gαqi5: α (Emax ratio to the standard agonist) (human mu opioid receptor [1])	Ki [2]	Ki [3]	Ki (human mu opioid receptor [4])
B1	0.25	> 1000 nM	> 1000 nM	34.9 nM
B2	0.57	> 1000 nM	675 nM	9.54 nM
B3	0.97	> 1000 nM	> 1000 nM	32.1 nM
B4	0.77	915 nM	722 nM	2.75 nM
